First the molecules themselves.
B1: Bis-40E9-L2H3-D99E.H (bispecific antibody)
VH: EVQLVQSGAEVKKPGASVKVSCKASGYTFTSYVIHWVRQAPGQGLEWMGYFNPYNDGTKYNEEFKGRVTLTSDKSTSTAYMELRSLRSDDTAVYYCARGGVRRYFDVWGQGTTVTVSS
VL: DIQMTQSPSSLSASVGDRVTITCRASQDIGSNLNWLQQKPGKAIKRLIYATFGLDSGVPSRFSGSRSGTDFTLTISSLQPEDFATYYCQQYASFPYTFGGGTKVEIK
scFv: EVQLVQSGAEVKKPGSSVKVSCKASGYTFSSYVIHWVRQAPGQCLEWMGYINPYNDVIKYNEKFKGRVTLTSDKSTSTAYMELSSLRSEDTAVYYCARESYYSYDGFAYWGQGTLVTVSSGGGGSGGGGSGGGGSGGGGSEIVLTQSPDFQSVTPKEKVTITCSASSSVSYMHWYQQKPDQSPKRLIYDTSKLASGVPSRFSGSGSGTDFTLTINSLEAEDAATYYCQQWSSNPPTFGCGTKVEIK
notes: L234A/L235A
B2: Bis-40E9-L3H1 (bispecific antibody)
VH: B1 VH
VL: B1 VL
scFv: B1 scFv with Y27G, L70I, S72A, E99D, L186W, F210Y
notes: L234A/L235A
B3: Bis-40E9-L2H3-G106A.H (bispecific antibody)
VH: B1 VH
VL: B1 VL
scFv: B1 scFv with E99D, G106A
notes: L234A/L235A
B4: Bis-40E9-L2H1 (bispecific antibody)
VH: B1 VH
VL: B1 VL
scFv: B1 scFv with Y27G, L70I, S72A, E99D
notes: Fab-scFv-Fab (2+1): two humanized anti-GPRC5D Fabs and one anti-CD3 scFv (VH-(GGGGS)4-VL) joined by (GGGGS)2 linkers to CH1 of one Fab and to CH2; L234A/L235A
B5: Bis-40E9-L2H3-D56G.H (bispecific antibody)
VH: B1 VH
VL: B1 VL
scFv: B1 scFv with D56G, E99D
notes: L234A/L235A
B6: Bis-40E9-L2H4 (bispecific antibody)
VH: B1 VH
VL: B1 VL
scFv: B1 scFv with M48I, V68A, E99D
notes: L234A/L235A
B7: Bis-108+ch147 (bispecific antibody)
heavy 1: not shown
heavy 2: EVQLVQSGAEVKKPGASVKVSCKASGYTFTSYVIHWVRQAPGQGLEWMGYFNPYNDGTKYNEEFKGRVTLTSDKSTSTAYMELRSLRSDDTAVYYCARGGVRRYFDVWGQGTTVTVSSASTKGPSVFPLAPSSKSTSGGTAALGCLVKDYFPEPVTVSWNSGALTSGVHTFPAVLQSSGLYSLSSVVTVPSSSLGTQTYICNVNHKPSNTKVDKKVEPKSCGGGGSGGGGSQVQLQQPGTELVKPGTSVKLSCKASGYTFTSYWMHWVKQRPGQCLEWIGNINPSNGATNYNEKFKSKATLTVDKSSSTAYMQLSSLTSEDSAVYYCARDRSSQYYFDYWGQGTTLTVSSGGGGSGGGGSGGGGSGGGGSDIVMSQSPSSLAVSAGEKVTMSCKSSQSLLNSRSRKNYLAWYQQKPGQSPKLLIYWASTRESGVPDRFTGSGSGTDFTLTISSVQAEDLAVYYCTQSYTLRTFGCGTKLEIKGGGGSGGGGSDKTHTCPPCPAPEAAGGPSVFLFPPKPKDTLMISRTPEVTCVVVDVSHEDPEVKFNWYVDGVEVHNAKTKPREEQYNSTYRVVSVLTVLHQDWLNGKEYKCKVSNKALPAPIEKTISKAKGQPREPQVCTLPPSREEMTKNQVSLSCAVKGFYPSDIAVEWESNGQPENNYKTTPPVLDSDGSFFLVSKLTVDKSRWQQGNVFSCSVMHEALHNHYTQKSLSLSPGK
light: DIQMTQSPSSLSASVGDRVTITCRASQDIGSNLNWLQQKPGKAIKRLIYATFGLDSGVPSRFSGSRSGTDFTLTISSLQPEDFATYYCQQYASFPYTFGGGTKVEIKRTVAAPSVFIFPPSDEQLKSGTASVVCLLNNFYPREAKVQWKVDNALQSGNSQESVTEQDSKDSTYSLSSTLTLSKADYEKHKVYACEVTHQGLSSPVTKSFNRGEC
notes: Fab-scFv-Fab format
B8: Bis-108+147-R35S.L (bispecific antibody)
heavy 1: not shown
heavy 2: EVQLVQSGAEVKKPGASVKVSCKASGYTFTSYVIHWVRQAPGQGLEWMGYFNPYNDGTKYNEEFKGRVTLTSDKSTSTAYMELRSLRSDDTAVYYCARGGVRRYFDVWGQGTTVTVSSASTKGPSVFPLAPSSKSTSGGTAALGCLVKDYFPEPVTVSWNSGALTSGVHTFPAVLQSSGLYSLSSVVTVPSSSLGTQTYICNVNHKPSNTKVDKKVEPKSCGGGGSGGGGSEVQLVQSGAEVKKPGSSVKVSCKASGYTFTSYWMHWVRQAPGQCLEWMGNINPSSGATNYNEKFKSRVTLTVDKSTSTAYMELSSLRSEDTAVYYCARDRSSQYYFDYWGQGTTVTVSSGGGGSGGGGSGGGGSGGGGSDIVMTQSPDSLAVSLGERATINCKSSQSLLNSRSSKNYLAWYQQKPGQPPKLLIYWASTRESGVPDRFSGSGSGTDFTLTISSLQAEDVAVYYCTQSYTLRTFGCGTKVEIKGGGGSGGGGSDKTHTCPPCPAPEAAGGPSVFLFPPKPKDTLMISRTPEVTCVVVDVSHEDPEVKFNWYVDGVEVHNAKTKPREEQYNSTYRVVSVLTVLHQDWLNGKEYKCKVSNKALPAPIEKTISKAKGQPREPQVCTLPPSREEMTKNQVSLSCAVKGFYPSDIAVEWESNGQPENNYKTTPPVLDSDGSFFLVSKLTVDKSRWQQGNVFSCSVMHEALHNHYTQKSLSLSPGK
light: B7 light
notes: Fab-scFv-Fab format
B9: Bis-108+147-N31Y.L (bispecific antibody)
heavy 1: not shown
heavy 2: B8 heavy 2 with N401Y, S405R
light: B7 light
notes: Fab-scFv-Fab format
B10: Bis-108+147-S31R.H (bispecific antibody)
heavy 1: not shown
heavy 2: B8 heavy 2 with S262R, S405R
light: B7 light
notes: Fab-scFv-Fab format
B11: Bis-108+147-R33A.L (bispecific antibody)
heavy 1: not shown
heavy 2: B8 heavy 2 with R403A, S405R
light: B7 light
notes: Fab-scFv-Fab format
B12: Bis-108+147-S32R.L (bispecific antibody)
heavy 1: not shown
heavy 2: B8 heavy 2 with S402R, S405R
light: B7 light
notes: Fab-scFv-Fab format
B13: Bis-108+147-R35K.L (bispecific antibody)
heavy 1: not shown
heavy 2: B8 heavy 2 with S405K
light: B7 light
notes: Fab-scFv-Fab format
B14: Bis-108+147-K36R.L (bispecific antibody)
heavy 1: not shown
heavy 2: B8 heavy 2 with S405R, K406R
light: B7 light
notes: Fab-scFv-Fab format
B15: Bis-108+147-N37K.L (bispecific antibody)
heavy 1: not shown
heavy 2: B8 heavy 2 with S405R, N407K
light: B7 light
notes: Fab-scFv-Fab format

Substitutions are numbered along the chain they refer to. Numbers in names are those of the source.

One may read the EC50 as the concentration at which the effect is half-maximal. Higher therefore signals lower potency in that assay.

T2 sequence (Q9NZD1 whole entry): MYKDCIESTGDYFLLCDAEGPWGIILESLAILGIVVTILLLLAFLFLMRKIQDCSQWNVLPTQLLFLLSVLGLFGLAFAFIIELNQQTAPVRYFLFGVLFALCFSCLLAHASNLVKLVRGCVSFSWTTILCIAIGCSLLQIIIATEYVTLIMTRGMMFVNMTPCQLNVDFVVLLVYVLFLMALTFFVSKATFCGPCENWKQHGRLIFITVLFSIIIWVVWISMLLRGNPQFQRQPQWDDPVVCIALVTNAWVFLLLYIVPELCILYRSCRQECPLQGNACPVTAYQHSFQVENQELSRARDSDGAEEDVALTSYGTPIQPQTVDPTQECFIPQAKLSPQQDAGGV

The target of the first assay is T1, CD3 on T cells / Jurkat cells (human, UniProt P07766 23-207; P04234 22-171; P09693 23-182).
T1 construct: whole, on cells; Native CD3 complex on CD3+ T cells isolated from normal donors or on Jurkat cells; also called human CD3; CD3+ T cells
T1 sequence (P07766 23-207, chain 1 of 3): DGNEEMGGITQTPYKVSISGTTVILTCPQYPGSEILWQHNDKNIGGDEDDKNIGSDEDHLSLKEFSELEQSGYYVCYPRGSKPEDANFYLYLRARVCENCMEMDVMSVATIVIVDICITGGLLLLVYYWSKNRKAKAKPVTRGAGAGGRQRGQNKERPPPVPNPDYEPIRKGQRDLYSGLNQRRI
T1 sequence (P04234 22-171, chain 2 of 3): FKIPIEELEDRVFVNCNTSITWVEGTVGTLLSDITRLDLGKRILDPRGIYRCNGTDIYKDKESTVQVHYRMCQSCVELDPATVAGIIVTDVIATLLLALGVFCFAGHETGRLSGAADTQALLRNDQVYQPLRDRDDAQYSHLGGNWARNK
T1 sequence (P09693 23-182, chain 3 of 3): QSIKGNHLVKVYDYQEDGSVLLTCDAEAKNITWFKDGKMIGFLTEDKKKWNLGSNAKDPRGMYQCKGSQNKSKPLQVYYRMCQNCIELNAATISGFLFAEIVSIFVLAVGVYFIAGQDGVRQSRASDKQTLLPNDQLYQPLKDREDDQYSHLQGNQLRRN
Nature of the assay: FACS on Jurkat cells.
For the molecule B1, the binding result was “binds”.

Regarding B2, the binding result is “binds”.

Regarding B3, the binding result is listed as “binds”.

As for B4, the binding result was “binds”.

Take B5: the binding result was “binds”.

As to B6, the binding result is given as “binds”.

The next assay addresses T2, GPRC5D on MM.1S cells (human, UniProt Q9NZD1 1-345).
T2 construct: whole, on cells; MM.1S is called a GPRC5D positive expressed cell line and human multiple myeloma cells; also called G-protein coupled receptor family C group 5 member D
The assay can be described thus: FACS on MM.1S cells. As for the experimental part:
The binding affinities of the generated humanized Fab-scFv-Fab bispecific antibodies were determined by FACS analysis. […] (a) Jurkat cells were washed by Staining Buffer (PBS+1% BSA) in round bottom 96-well plate. [0833] (b) Antibody dilutions and cells were added to each well, incubated at 4 degrees for 1 hour. [0834] (c) Cells were spined down at 300 g for 3 minutes, and the supernatants were discarded. [0835] (d) Cells were washed with Staining Buffer. […] (e) Step (d) was repeated and the cells were incubated for 0.5 hours at 4 degrees with secondary antibody in Staining Buffer. [0837] (f) After incubation, step (d)-(e) were repeated. […] (g) Staining Buffer was added and fluorescence signals were recorded by flow cytometry.
The binding affinities of the generated humanized Fab-scFv-Fab bispecific antibodies were determined by FACS analysis. The ATG-Bis-40E9 was used as positive control and hIgG1 isotype was used as negative control. The protocol for FACS analysis is identical to that described in Example 3.2, except that MM.1S cells were used in this example.
For B7, the response was half-maximal at 2.61 nM (EC50) and the Top signal was determined as 2260 MFI.

As for B8, it took 1.53 nM to reach a half-maximal effect (EC50) and the Top signal stood at 1860 MFI.

Consider B9, for which it took 1.93 nM to reach a half-maximal effect (EC50) and the Top signal is 1930 MFI.

B10 returned an EC50 of 1.5 nM and a Top signal of 2030 MFI.

B11 displayed an EC50 of 1.87 nM and a Top signal of 1650 MFI.

With B12, the midpoint of the response, the EC50, lay at 1.76 nM and the Top signal was 2050 MFI.

B13: the EC50 was found to be 1.58 nM and the Top signal stood at 1740 MFI.

Consider B14, for which the EC50 came out at 1.56 nM and the Top signal turned out to be 1840 MFI.

Take B15: the EC50 turned out to be 2.15 nM and the Top signal was 1900 MFI.

The next assay concerns the target T2, GPRC5D on MM.1S cells. The assay can be described thus: cell-based or functional assay.
Take B7: the “IC50 of T-cell dependent cytotoxicity on MM.1S cells” value (shortened to “IC50”) was 0.53 nM and the “Top (%) target cell killing, MM.1S cells” value stood at 99.4%.

In the case of B8, the “IC50” value amounted to 1.64 nM and the “Top (%) target cell killing, MM.1S cells” value worked out at 102%.

As for B9, the “Top (%) target cell killing, MM.1S cells” value came out at 122%.

Take B10: the “IC50” value amounted to 4.43 nM and the “Top (%) target cell killing, MM.1S cells” value is 159%.

On to B11, for which the “IC50” value turned out to be 1.51 nM and the “Top (%) target cell killing, MM.1S cells” value worked out at 45.1%.

In the case of B12, the “IC50” value came to 0.54 nM and the “Top (%) target cell killing, MM.1S cells” value was determined as 99%.

With B13, the “IC50” value was 0.61 nM and the “Top (%) target cell killing, MM.1S cells” value is 99.9%.

On to B14, for which the “IC50” value was found to be 1940 nM.

B15: the “IC50” value amounted to 1490 nM.

The next assay addresses T2, GPRC5D on MM.1S cells. The assay can be described thus: cell-based or functional assay. The source holds these as a separate data set.
For the molecule B7, the “EC50, Jurkat-NFAT-Luciferase assay in the presence of MM.1S cells” value (“EC50, Jurkat-NFAT-Luciferase assay” for short) is 0.11 nM and the “Top RLU, Jurkat-NFAT-Luciferase assay in the presence of MM.1S cells” value (“Top RLU, Jurkat-NFAT-Luciferase assay” for short) came out at 368 RLU.

On to B8, for which the “EC50, Jurkat-NFAT-Luciferase assay” value is 1.87 nM and the “Top RLU, Jurkat-NFAT-Luciferase assay” value worked out at 344 RLU.

Take B9: the “EC50, Jurkat-NFAT-Luciferase assay” value stood at 0.27 nM and the “Top RLU, Jurkat-NFAT-Luciferase assay” value stood at 11.8 RLU.

For the molecule B10, the “EC50, Jurkat-NFAT-Luciferase assay” value came out at 0.25 nM and the “Top RLU, Jurkat-NFAT-Luciferase assay” value came to 334 RLU.

With B11, the “EC50, Jurkat-NFAT-Luciferase assay” value came to 2.48 nM and the “Top RLU, Jurkat-NFAT-Luciferase assay” value was found to be 287 RLU.

B12: the “EC50, Jurkat-NFAT-Luciferase assay” value was determined as 0.32 nM and the “Top RLU, Jurkat-NFAT-Luciferase assay” value was 406 RLU.

As to B13, the “EC50, Jurkat-NFAT-Luciferase assay” value is 0.47 nM and the “Top RLU, Jurkat-NFAT-Luciferase assay” value was determined as 408 RLU.

As to B14, the “EC50, Jurkat-NFAT-Luciferase assay” value came to 0.76 nM and the “Top RLU, Jurkat-NFAT-Luciferase assay” value came to 326 RLU.

As to B15, the “EC50, Jurkat-NFAT-Luciferase assay” value amounted to 0.15 nM and the “Top RLU, Jurkat-NFAT-Luciferase assay” value was determined as 424 RLU.

The record behind these values is patent US20260193348A1 (ANTENGENE BIOLOGICS, published 2026).
